Results: patent publication US20030165887A1 (BURNHAM INSTITUTE, published 2003)

T1: TUCAN (Tumor Up-regulated CARD-containing Antagonist of Caspase Nine), full-length (Homo sapiens (Human), UniProt Q9Y2G2 131-537)
T1 construct: Full-length TUCAN expressed by transient transfection in HEK293T cells; also called full-length TUCAN; CARD-X
T1 sequence: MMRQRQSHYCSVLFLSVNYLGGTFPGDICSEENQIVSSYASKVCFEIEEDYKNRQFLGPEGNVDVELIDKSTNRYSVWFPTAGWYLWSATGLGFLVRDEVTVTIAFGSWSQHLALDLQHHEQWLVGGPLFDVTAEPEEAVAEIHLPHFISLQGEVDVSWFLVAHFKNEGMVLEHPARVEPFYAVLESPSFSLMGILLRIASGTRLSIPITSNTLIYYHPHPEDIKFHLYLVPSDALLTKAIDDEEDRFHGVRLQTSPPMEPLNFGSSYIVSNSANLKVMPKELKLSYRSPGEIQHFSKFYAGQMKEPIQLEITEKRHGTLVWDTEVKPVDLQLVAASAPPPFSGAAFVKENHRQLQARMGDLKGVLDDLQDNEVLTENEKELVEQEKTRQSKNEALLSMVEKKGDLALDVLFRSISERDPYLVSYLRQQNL

B1: pro-caspase-9 inactive mutant (Cys287/Ala) (enzyme)
chain: MDEADRRLLRRCRLRLVEELQVDQLWDALLSSELFRPHMIEDIQRAGSGSRRDQARQLIIDLETRGSQALPLFISCLEDTGQDMLASFLRTNRQAAKLSKPTLENLTPVVLRPEIRKPEVLRPETPRPVDIGSGGFGDVGALESLRGNADLAYILSMEPCGHCLIINNVNFCRESGLRTRTGSNIDCEKLRRRFSSPHFMVEVKGDLTAKKMVLALLELAQQDHGALDCCVVVILSHGCQASHLQFPGAVYGTDGCPVSVEKIVNIFNGTSCPSLGGKPKLFFIQAAGGEQKDHGFEVASTSPEDESPGSNPEPDATPFQEGLRTFDQLDAISSLPTPSDIFVSYSTFPGFVSWRDPKSGSWYVETLDDIFEQWAHSEDLQSLLLRVANAVSVKGIYKQMPGCFNFLRKKLFFKTS
B2: Bcl10 (CIPER; huE10) (other, UniProt O95999 1-233, looked up)
chain: MEPTAPSLTEEDLTEVKKDALENLRVYLCEKIIAERHFDHLRAKKILSREDTEEISCRTSSRKRAGKLLDYLQENPKGLDTLVESIRREKTQNFLIQKITDEVLKLRNIKLEHLKGLKCSSCEPFPDGATNNLSRSNSDESNFSEKLRASTVMYHPEGESSTTPFFSTNSSLNLPVLEVGRTENTIFSSTTLPRPGDPGAPPLPPDLQLEEEGTCANSSEMFLPLRSRTVSRQ
B3: pro-Caspase-1 (enzyme, UniProt P29466 1-404, looked up)
chain: MADKVLKEKRKLFIRSMGEGTINGLLDELLQTRVLNKEEMEKVKRENATVMDKTRALIDSVIPKGAQACQICITYICEEDSYLAGTLGLSADQTSGNYLNMQDSQGVLSSFPAPQAVQDNPAMPTSSGSEGNVKLCSLEEAQRIWKQKSAEIYPIMDKSSRTRLALIICNEEFDSIPRRTGAEVDITGMTMLLQNLGYSVDVKKNLTASDMTTELEAFAHRPEHKTSDSTFLVFMSHGIREGICGKKHSEQVPDILQLNAIFNMLNTKNCPSLKDKPKVIIIQACRGDSPGVVWFKDSVGVSGNLSLPTTEEFEDDAIKKAHIEKDFIAFCSSTPDNVSWRHPTMGSVFIGRLIEHMQEYACSCDVEEIFRKVRFSFEQPDGRAQMPTTERVTLTRCFYLFPGH
B4: TUCAN fragment lacking the CARD (residues 1-337) (other)
chain: MMRQRQSHYCSVLFLSVNYLGGTFPGDICSEENQIVSSYASKVCFEIEEDYKNRQFLGPEGNVDVELIDKSTNRYSVWFPTAGWYLWSATGLGFLVRDEVTVTIAFGSWSQHLALDLQHHEQWLVGGPLFDVTAEPEEAVAEIHLPHFISLQGEVDVSWFLVAHFKNEGMVLEHPARVEPFYAVLESPSFSLMGILLRIASGTRLSIPITSNTLIYYHPHPEDIKFHLYLVPSDALLTKAIDDEEDRFHGVRLQTSPPMEPLNFGSSYIVSNSANLKVMPKELKLSYRSPGEIQHFSKFYAGQMKEPIQLEITEKRHGTLVWDTEVKPVDLQLVAAS
notes: also called ΔCARD; ΔCARD fragment of TUCAN

What was measured:
[1] = biological target: B4; assay: co-immunoprecipitation, transfected cells, SDS-PAGE/immunoblot
Protocol: (§1) The TUCAN polypeptides were expressed by transient transfection in HEK293T cells together with epitope-tagged pro-caspase-9 or other proteins. […] Cell lysates were prepared from transfected cells and immunoprecipitations were performed using anti-Flag or anti-Myc antibodies, followed by SDS-PAGE/immunoblot analysis.
(§2) To determine the role of the CARD domain within TUCAN for interactions with pro-Caspase-9, fragments of TUCAN were expressed. […] Self-association of TUCAN was also confirmed by co-immunoprecipitation experiments, using HA and Myc-tagged proteins and contrasting the full-length, CARD-only, and ΔCARD proteins.

[2] = biological target: T1, TUCAN (Tumor Up-regulated …); assay: co-immunoprecipitation, transfected HEK293T cells, SDS-PAGE/immunoblot
Protocol: as §1

[3] = biological target: T1, TUCAN (Tumor Up-regulated …); assay: co-immunoprecipitation with HA- and Myc-tagged proteins
Protocol: as §1, §2

binding result [2] | Binder | further results
 | B1 | binding result [1]: no binding
no binding | B2 | 
no binding | B3 | 
 | B4 | binding result [3]: no binding
